Bridge positions count the residues as written; N and C are the ends. Square brackets hold non-standard residues; d marks the D form. Primed or numbered codes have the meaning given here. Ends that are not written are not given here. Peptide text beside a SMILES is read from it. * marks the point of attachment. Ebes(3) = 2,2'-ethylenedioxy bis(ethylamine) monosuccinamide, NCCOCCOCCNC(=O)CCC(=O)*; Benzoyl(4-NO2) = O=C(c1ccc([N+](=O)[O-])cc1)*; Pro(5R-Ph) = O=C(O)[C@@H]1CC[C@H](c2ccccc2)N1; Benzoyl(4-CF3) = O=C(c1ccc(C(F)(F)F)cc1)*; d1Nal = N[C@H](Cc1cccc2ccccc12)C(=O)O; dBta = N[C@H](Cc1csc2ccccc12)C(=O)O; Cyclohexylacetyl = O=C(CC1CCCCC1)*; NMeR = CN[C@@H](CCCNC(=N)N)C(=O)O; dCit = NC(=O)NCCC[C@@H](N)C(=O)O; dPen = CC(C)(S)[C@@H](N)C(=O)O; dNMeV = CN[C@@H](C(=O)O)C(C)C; Pentanoyl = CCCCC(=O)*; βAla = NCCC(=O)O; Sar = CNCC(=O)O
Each molecule was assayed against T1, αvβ3 integrin (human, UniProt P06756 31-1048; P05106 27-788) (assay: flow cytometry, competition with biotinylated LXW7 on αvβ3-K562 cells; +++ = IC50 <1 µM). Settings: not given.
T1 construct: whole, on cells; Same entry used for αvβ3-K562, U-87 MG and A375M cells; also called αvβ3-K562; αvβ3 transfected K562 cells
T1 sequence (P06756 31-1048, chain 1 of 2): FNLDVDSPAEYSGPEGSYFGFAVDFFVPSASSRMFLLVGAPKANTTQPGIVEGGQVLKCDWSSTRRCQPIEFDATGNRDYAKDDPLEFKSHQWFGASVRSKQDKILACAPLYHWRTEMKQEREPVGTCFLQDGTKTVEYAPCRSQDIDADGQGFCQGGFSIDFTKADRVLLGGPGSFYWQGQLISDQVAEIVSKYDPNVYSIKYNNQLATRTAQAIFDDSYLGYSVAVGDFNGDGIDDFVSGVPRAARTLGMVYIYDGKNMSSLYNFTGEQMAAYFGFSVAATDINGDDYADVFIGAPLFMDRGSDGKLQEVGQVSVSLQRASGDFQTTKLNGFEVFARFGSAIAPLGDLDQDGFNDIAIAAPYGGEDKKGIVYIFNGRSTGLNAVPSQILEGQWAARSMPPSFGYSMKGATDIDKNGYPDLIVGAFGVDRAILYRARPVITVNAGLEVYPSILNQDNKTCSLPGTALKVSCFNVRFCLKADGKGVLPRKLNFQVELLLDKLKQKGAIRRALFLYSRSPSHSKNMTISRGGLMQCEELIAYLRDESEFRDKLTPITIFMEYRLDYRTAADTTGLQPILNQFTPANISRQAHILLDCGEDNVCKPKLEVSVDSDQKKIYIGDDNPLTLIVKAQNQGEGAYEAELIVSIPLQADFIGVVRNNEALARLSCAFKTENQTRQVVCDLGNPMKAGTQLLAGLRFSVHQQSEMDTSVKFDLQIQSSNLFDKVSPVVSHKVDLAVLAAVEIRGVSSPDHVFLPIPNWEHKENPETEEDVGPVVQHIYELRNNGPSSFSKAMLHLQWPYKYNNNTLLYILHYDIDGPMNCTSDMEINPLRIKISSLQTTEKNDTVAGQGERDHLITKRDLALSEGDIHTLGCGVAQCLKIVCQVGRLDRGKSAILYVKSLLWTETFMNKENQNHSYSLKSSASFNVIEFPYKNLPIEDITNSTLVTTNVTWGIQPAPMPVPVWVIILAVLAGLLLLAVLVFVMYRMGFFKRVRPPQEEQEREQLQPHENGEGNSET
T1 sequence (P05106 27-788, chain 2 of 2): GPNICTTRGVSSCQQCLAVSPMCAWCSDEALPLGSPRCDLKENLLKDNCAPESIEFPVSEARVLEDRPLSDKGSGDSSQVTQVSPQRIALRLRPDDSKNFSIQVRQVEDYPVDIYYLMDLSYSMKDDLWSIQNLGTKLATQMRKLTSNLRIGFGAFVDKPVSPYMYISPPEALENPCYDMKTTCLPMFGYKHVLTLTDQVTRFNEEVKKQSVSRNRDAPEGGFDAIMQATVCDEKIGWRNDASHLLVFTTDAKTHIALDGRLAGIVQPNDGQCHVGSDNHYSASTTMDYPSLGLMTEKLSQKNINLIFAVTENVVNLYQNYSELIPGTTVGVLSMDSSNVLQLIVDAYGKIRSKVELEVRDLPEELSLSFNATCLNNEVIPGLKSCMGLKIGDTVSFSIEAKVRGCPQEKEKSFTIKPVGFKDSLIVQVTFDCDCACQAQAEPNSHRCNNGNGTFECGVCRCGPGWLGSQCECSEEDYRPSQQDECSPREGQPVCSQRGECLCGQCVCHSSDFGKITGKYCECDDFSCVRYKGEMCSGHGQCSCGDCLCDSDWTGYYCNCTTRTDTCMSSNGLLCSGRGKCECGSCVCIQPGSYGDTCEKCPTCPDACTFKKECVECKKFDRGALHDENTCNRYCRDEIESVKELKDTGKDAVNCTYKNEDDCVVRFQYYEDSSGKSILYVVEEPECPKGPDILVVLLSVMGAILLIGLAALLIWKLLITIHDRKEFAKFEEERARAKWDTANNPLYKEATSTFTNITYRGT

IC50 [µM]	Molecule
< 1	{3‑amino propanoyl}-[dC]GRGD[dD][dV][dC]-NH2 (disulfide 1-8) [LXW56]
< 1	Ac-[dC]GRGD[dD][dV][dC]-NH2 (disulfide 1-8; SMILES CC(=O)N[C@@H]1CSSC[C@H](C(N)=O)NC(=O)[C@@H](C(C)C)NC(=O)[C@@H](CC(=O)O)NC(=O)[C@H](CC(=O)O)NC(=O)CNC(=O)[C@H](CCCNC(=N)N)NC(=O)CNC1=O) [LXW12]
< 1	[dC]G[NMeR]GD[dD][dV][dC]-NH2 (disulfide 1-8; N-terminus assumed; SMILES CC(C)[C@H]1NC(=O)[C@@H](CC(=O)O)NC(=O)[C@H](CC(=O)O)NC(=O)CNC(=O)[C@H](CCCNC(=N)N)N(C)C(=O)CNC(=O)[C@H](N)CSSC[C@H](C(N)=O)NC1=O) [LXW53]
< 1	{Ebes(3)}-[dC]GRGD[dD][dV][dC]-NH2 (disulfide 1-8; SMILES CC(C)[C@H]1NC(=O)[C@@H](CC(=O)O)NC(=O)[C@H](CC(=O)O)NC(=O)CNC(=O)[C@H](CCCNC(=N)N)NC(=O)CNC(=O)[C@H](NC(=O)CCC(=O)NCCOCCOCCN)CSSC[C@H](C(N)=O)NC1=O) [LXW57]
< 1	[dC]GRGD[dD][dNMeV][dC]-NH2 (disulfide 1-8; N-terminus assumed; SMILES CC(C)[C@@H]1C(=O)N[C@@H](C(N)=O)CSSC[C@@H](N)C(=O)NCC(=O)N[C@@H](CCCNC(=N)N)C(=O)NCC(=O)N[C@@H](CC(=O)O)C(=O)N[C@H](CC(=O)O)C(=O)N1C) [LXW22]

The molecules below were run against αvβ3 integrin (Homo sapiens, UniProt P05106+P06756) (assay: Inhibition of biotinylated LXW7 binding to αvβ3-K562 cells (flow cytometry)). Settings: LXW9-92: inhibiting the binding of biotinylated LXW7 against αvβ3-K562 cells; class symbols.
Set-up: expressed in transfected cells; host or cells: K562 (gift of Dr. Yoshikazu Takada, UC Davis)
Procedure: The apparent IC50 were calculated using Graph Prism software (≦www.graphpad.com≧).
The samples were analyzed with Coulter XL-MCL flow cytometry. The histogram and mean fluorescence intensity (MFI) were determined. The apparent Kd, IC50 were calculated using Graph Prism software (≦www.graphpad.com≧).

Chain of αvβ3 integrin (Homo sapiens, UniProt P05106+P06756) (P06756 31-889 limits assumed): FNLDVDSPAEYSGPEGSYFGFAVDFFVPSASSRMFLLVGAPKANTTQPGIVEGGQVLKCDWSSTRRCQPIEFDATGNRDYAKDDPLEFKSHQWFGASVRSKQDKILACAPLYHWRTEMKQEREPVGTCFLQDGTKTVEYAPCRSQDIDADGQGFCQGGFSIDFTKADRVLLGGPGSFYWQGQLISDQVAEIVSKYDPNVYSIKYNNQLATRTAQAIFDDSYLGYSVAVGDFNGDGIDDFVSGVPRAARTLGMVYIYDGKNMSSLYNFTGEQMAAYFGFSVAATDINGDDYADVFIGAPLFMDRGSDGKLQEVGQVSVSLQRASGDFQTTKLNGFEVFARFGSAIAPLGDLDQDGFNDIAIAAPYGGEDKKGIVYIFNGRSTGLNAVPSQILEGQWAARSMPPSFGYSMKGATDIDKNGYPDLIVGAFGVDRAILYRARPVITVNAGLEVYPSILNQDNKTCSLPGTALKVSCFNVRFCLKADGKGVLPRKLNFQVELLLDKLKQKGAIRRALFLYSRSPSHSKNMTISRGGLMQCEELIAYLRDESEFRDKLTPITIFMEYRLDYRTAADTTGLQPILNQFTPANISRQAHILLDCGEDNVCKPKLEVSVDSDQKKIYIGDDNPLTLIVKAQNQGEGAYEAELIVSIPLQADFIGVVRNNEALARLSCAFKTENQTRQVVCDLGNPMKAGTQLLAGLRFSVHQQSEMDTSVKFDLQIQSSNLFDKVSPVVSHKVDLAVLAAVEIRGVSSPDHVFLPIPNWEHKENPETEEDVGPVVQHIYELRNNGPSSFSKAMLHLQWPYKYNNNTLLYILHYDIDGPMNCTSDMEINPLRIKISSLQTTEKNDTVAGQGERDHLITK
Chain of αvβ3 integrin (Homo sapiens, UniProt P05106+P06756) (P06756 891-1048 partner limits assumed): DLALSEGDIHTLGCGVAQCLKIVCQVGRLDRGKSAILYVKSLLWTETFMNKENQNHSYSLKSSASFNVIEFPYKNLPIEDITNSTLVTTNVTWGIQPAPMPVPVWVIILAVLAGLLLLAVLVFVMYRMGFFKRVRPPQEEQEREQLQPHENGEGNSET
Chain of αvβ3 integrin (Homo sapiens, UniProt P05106+P06756) (P05106 27-788): as the sequence (P05106 27-788, chain 2 of 2) above

IC50 [µM]	Molecule
> 10	N=C(N)NCCC[C@@H]1NC(=O)CNC(=O)[C@H](N)CSSC[C@H](C(N)=O)NC(=O)[C@@H]2CC[C@H](c3ccccc3)N2C(=O)[C@@H](CCCNC(N)=O)NC(=O)[C@H](CC(=O)O)NC(=O)CNC1=O [LXW70, cGRGD-DCit-Ppca-c] (H-[dC]GRGD[dCit][Pro(5R-Ph)][dC]-NH2; disulfide 1-8)
< 1	CC(C)[C@H]1NC(=O)[C@@H](CC(=O)O)NC(=O)[C@H](CC(=O)O)NC(=O)CNC(=O)[C@H](CCCNC(=N)N)NC(=O)CNC(=O)[C@H](NC(=O)c2ccc(C(F)(F)F)cc2)CSSC[C@H](C(N)=O)NC1=O [LXW85, 4-(trifluoromethyl)benzoyl-cGRGDdvc] ({Benzoyl(4-CF3)}-[dC]GRGD[dD][dV][dC]-NH2; disulfide 1-8)

The molecules below were run against T1, αvβ3 integrin (assay: flow cytometry, competition with biotinylated LXW7 on αvβ3-K562 cells; ++ = IC50 1-10 µM). Settings: not given.

IC50 [µM]	Molecule
1 to 10	[dC]GRGD[dD][dV]C-NH2 (disulfide 1-8; N-terminus assumed; SMILES CC(C)[C@H]1NC(=O)[C@@H](CC(=O)O)NC(=O)[C@H](CC(=O)O)NC(=O)CNC(=O)[C@H](CCCNC(=N)N)NC(=O)CNC(=O)[C@H](N)CSSC[C@@H](C(N)=O)NC1=O) [LXW10]
1 to 10	{5‑bromo‑2‑furoyl}-[dC]GRGD[dD][dV][dC]-NH2 (disulfide 1-8) [LXW90]
1 to 10	[dPen]GRGD[dD][dV][dPen]-NH2 (disulfide 1-8; N-terminus assumed; SMILES CC(C)[C@H]1NC(=O)[C@@H](CC(=O)O)NC(=O)[C@H](CC(=O)O)NC(=O)CNC(=O)[C@H](CCCNC(=N)N)NC(=O)CNC(=O)[C@H](N)C(C)(C)SSC(C)(C)[C@H](C(N)=O)NC1=O) [LXW19]
1 to 10	Pentanoyl-[dC]GRGD[dD][dV][dC]-NH2 (disulfide 1-8; SMILES CCCCC(=O)N[C@@H]1CSSC[C@H](C(N)=O)NC(=O)[C@@H](C(C)C)NC(=O)[C@@H](CC(=O)O)NC(=O)[C@H](CC(=O)O)NC(=O)CNC(=O)[C@H](CCCNC(=N)N)NC(=O)CNC1=O) [LXW77]
1 to 10	{p‑chlorophenyl acetyl}-[dC]GRGD[dD][dV][dC]-NH2 (disulfide 1-8) [LXW81]
1 to 10	CGRGD[dD][d1Nal]C-NH2 (disulfide 1-8; N-terminus assumed; SMILES N=C(N)NCCC[C@@H]1NC(=O)CNC(=O)[C@@H](N)CSSC[C@@H](C(N)=O)NC(=O)[C@@H](Cc2cccc3ccccc23)NC(=O)[C@@H](CC(=O)O)NC(=O)[C@H](CC(=O)O)NC(=O)CNC1=O, also called CGRGDd-DNal1-C) [LXW47]
1 to 10	[dC]GRGD[dE][Pro(5R-Ph)][dC]-NH2 (disulfide 1-8; N-terminus assumed; SMILES N=C(N)NCCC[C@@H]1NC(=O)CNC(=O)[C@H](N)CSSC[C@H](C(N)=O)NC(=O)[C@@H]2CC[C@H](c3ccccc3)N2C(=O)[C@@H](CCC(=O)O)NC(=O)[C@H](CC(=O)O)NC(=O)CNC1=O) [LXW71]
1 to 10	[dC][Sar]RGD[dD][dV][dC]-NH2 (disulfide 1-8; N-terminus assumed; SMILES CC(C)[C@H]1NC(=O)[C@@H](CC(=O)O)NC(=O)[C@H](CC(=O)O)NC(=O)CNC(=O)[C@H](CCCNC(=N)N)NC(=O)CN(C)C(=O)[C@H](N)CSSC[C@H](C(N)=O)NC1=O) [LXW14]
1 to 10	[dC]GRGD[dCit][dBta][dC]-NH2 (disulfide 1-8; N-terminus assumed; SMILES N=C(N)NCCC[C@@H]1NC(=O)CNC(=O)[C@H](N)CSSC[C@H](C(N)=O)NC(=O)[C@@H](Cc2csc3ccccc23)NC(=O)[C@@H](CCCNC(N)=O)NC(=O)[C@H](CC(=O)O)NC(=O)CNC1=O) [LXW73]
1 to 10	Cyclohexylacetyl-[dC]GRGD[dD][dV][dC]-NH2 (disulfide 1-8; SMILES CC(C)[C@H]1NC(=O)[C@@H](CC(=O)O)NC(=O)[C@H](CC(=O)O)NC(=O)CNC(=O)[C@H](CCCNC(=N)N)NC(=O)CNC(=O)[C@H](NC(=O)CC2CCCCC2)CSSC[C@H](C(N)=O)NC1=O) [LXW78]
1 to 10	{Benzoyl(4-NO2)}-[dC]GRGD[dD][dV][dC]-NH2 (disulfide 1-8; SMILES CC(C)[C@H]1NC(=O)[C@@H](CC(=O)O)NC(=O)[C@H](CC(=O)O)NC(=O)CNC(=O)[C@H](CCCNC(=N)N)NC(=O)CNC(=O)[C@H](NC(=O)c2ccc([N+](=O)[O-])cc2)CSSC[C@H](C(N)=O)NC1=O) [LXW82]
1 to 10	[dC]GRGD[dD][dV][dPen]-NH2 (disulfide 1-8; N-terminus assumed; SMILES CC(C)[C@H]1NC(=O)[C@@H](CC(=O)O)NC(=O)[C@H](CC(=O)O)NC(=O)CNC(=O)[C@H](CCCNC(=N)N)NC(=O)CNC(=O)[C@H](N)CSSC(C)(C)[C@H](C(N)=O)NC1=O) [LXW21]
1 to 10	[dC][βAla]RGD[dD][dV][dC]-NH2 (disulfide 1-8; N-terminus assumed; SMILES CC(C)[C@H]1NC(=O)[C@@H](CC(=O)O)NC(=O)[C@H](CC(=O)O)NC(=O)CNC(=O)[C@H](CCCNC(=N)N)NC(=O)CCNC(=O)[C@H](N)CSSC[C@H](C(N)=O)NC1=O) [LXW15]
1 to 10	CGRGD[dD][dV][dC]-NH2 (disulfide 1-8; N-terminus assumed; SMILES CC(C)[C@H]1NC(=O)[C@@H](CC(=O)O)NC(=O)[C@H](CC(=O)O)NC(=O)CNC(=O)[C@H](CCCNC(=N)N)NC(=O)CNC(=O)[C@@H](N)CSSC[C@H](C(N)=O)NC1=O) [LXW9]
1 to 10	[dC][dA]RGD[dD][dV][dC]-NH2 (disulfide 1-8; N-terminus assumed; SMILES CC(C)[C@H]1NC(=O)[C@@H](CC(=O)O)NC(=O)[C@H](CC(=O)O)NC(=O)CNC(=O)[C@H](CCCNC(=N)N)NC(=O)[C@@H](C)NC(=O)[C@H](N)CSSC[C@H](C(N)=O)NC1=O) [LXW13]
1 to 10	[dC]GRGD[dD][dI][dC]-NH2 (disulfide 1-8; N-terminus assumed; SMILES CC[C@@H](C)[C@H]1NC(=O)[C@@H](CC(=O)O)NC(=O)[C@H](CC(=O)O)NC(=O)CNC(=O)[C@H](CCCNC(=N)N)NC(=O)CNC(=O)[C@H](N)CSSC[C@H](C(N)=O)NC1=O) [LXW26]
1 to 10	[dPen]GRGD[dD][dV][dC]-NH2 (disulfide 1-8; N-terminus assumed; SMILES CC(C)[C@H]1NC(=O)[C@@H](CC(=O)O)NC(=O)[C@H](CC(=O)O)NC(=O)CNC(=O)[C@H](CCCNC(=N)N)NC(=O)CNC(=O)[C@H](N)C(C)(C)SSC[C@H](C(N)=O)NC1=O) [LXW20]
1 to 10	nicotinyl-[dC]GRGD[dD][dV][dC]-NH2 (disulfide 1-8) [LXW92]

From patent US9073974B2, “RGD-containing cyclic peptides” (The Regents of the University of California, priority 2009, dated 2015)
